# From paper PMC3064264 (The Journal of neuroscience : the official journal of the …, 2010)
# B1: kinesin-12 (rat) (natural protein, UniProt Q7TSP2 1-1385, looked up)
# chain: MAPGCKSELRNVTNSHSNQPSNEDDAIKVFVRIRPAEEGARSADGEQSLCLSVLSQTALRLHSNPDPKTFVFDYVAGMDTTQESVFSTVAKSIVESCMSGYNGTIFAYGQTGSGKTFTMMGPSDSDNFSHNLRGVIPRSFEYLFSLIDREKEKAGAGKSFLCKCSFIEVYNEQIYDLLDSASVGLYLREHIKKGVFVVGAVEQVVASAAEAYQVLSRGWRNRRVASTSMNRESSRSHAVFTITIESMEKSSEAVNIRTSLLNLVDLAGSERQKDTHAEGMRLKEAGNINRSLSCLGQVITALVDVGNGKQRHVCYRDSKLTFLLRDSLGGNAKTAIIANVHPGSRCFGETLSTLNFAQRAKLIKNKAVVNEDTQGNVSQLQAEVKRLREQLSQFTSGQLTPGSSLARDKEKANYMEYFLEAMLFFKKSEQEKKSLVEKITQLEDLTLKKEKFIQSNKMIVKFREDQIMRLERLQKEARGSFLPEEQDRLLSELRDEIRTLREQVEHHPRLAKYAMENHSLREENRKLKLLAPVKRAHELDAQAIARLEQAFSEVSSTETNDKGLQGLPPKAIKEPSFFTSTEKLKVQLLQIQTELNNSKQEYEEFKELTRKKQLELESELQSLQKANLNLENLLEATKVCKRQEVSQLNKIHAETLKIITTPTKAYQLCSRLVPKSSPEVGSFGFLRSQSAPDNDILNEPVPPEMSEQALEAISEELRTVQEQLSVLQVKLDEEEHKNLKLQQNVDRLEHHSTQMQELFSSERSDWSKQQQDYLTQLSDLEKQLQDAQTKNDFLKCEVHDLRIVLNSADKELSLVKLEYSTFKESQEKELSQLSERHVQVQLQLDNARLENEKLLESQACLQDSYDNLQEVMKFEVDQLSKNLQNCKQENETLKSDLHNLVELFEAEKERNNKLSLQFEEDKENSSKEILKALETVRQEKQEEMARCEKQMAKVQELEESLLAAENVVSCLEKSRESDKELVTNLMNQIQELRTSAGEKSEAIDTLKQELQDISCKYTAAVADKEESKELIRRQEVDILELKETLRLRILSEDIERDMLCEDLAHATEQLNMLTEASKKHSGLLQSAQEELTKKEALIQELQHKLNQEKEEVEQKKSEYNLKMKQLEHVMGSAPEYPQSPKTPPHFQTHLAKLLETQEQEIEDGRASKMSLQHLVTKLNEDREVKNAEILRMKDQLCEMENLRLESQQLRERTWLLQTQLDDMKRQGESSSQSRPDSQQLKNEYEEEIIRERLAKNKLIEEMLKMKTDLEEVQSALDSKEKFCHRMSEEVERTRTLESRAFQEKEQLRSKLEEMYEERERTCQEMEMLRKQLEFLAEENGKLIGHQNLHQKIQYVVRLKKENIRLAEETEKLRAENVFLKERKKE
# Target: the molecule itself
# Assay: non-reducing SDS-PAGE and Western blot
protein,measurement,value
B1,stoichiometry N,2
